Reference: US20160200782A1 (MOERAE MATRIX, published 2016)

T1: Itk(h) (human, UniProt Q08881 1-620, limits assumed)
T1 sequence (looked up): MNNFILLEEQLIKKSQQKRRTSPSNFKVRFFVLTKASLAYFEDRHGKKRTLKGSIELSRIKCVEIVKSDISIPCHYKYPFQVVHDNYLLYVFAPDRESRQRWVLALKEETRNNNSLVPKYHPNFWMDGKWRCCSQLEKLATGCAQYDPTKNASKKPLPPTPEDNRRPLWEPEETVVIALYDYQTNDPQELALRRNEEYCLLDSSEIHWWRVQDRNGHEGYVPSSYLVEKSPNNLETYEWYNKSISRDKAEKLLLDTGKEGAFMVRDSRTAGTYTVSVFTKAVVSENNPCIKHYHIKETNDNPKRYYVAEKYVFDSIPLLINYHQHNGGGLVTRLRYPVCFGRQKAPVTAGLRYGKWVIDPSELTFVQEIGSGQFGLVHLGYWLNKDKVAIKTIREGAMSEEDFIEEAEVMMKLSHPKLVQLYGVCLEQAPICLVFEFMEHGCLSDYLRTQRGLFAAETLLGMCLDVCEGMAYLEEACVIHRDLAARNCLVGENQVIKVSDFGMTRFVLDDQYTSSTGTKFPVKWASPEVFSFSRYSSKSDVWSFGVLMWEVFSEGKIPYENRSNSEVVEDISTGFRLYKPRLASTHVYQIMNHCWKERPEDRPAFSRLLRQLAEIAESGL

T2: ALK4(h) (human, UniProt P36896 150-505, limits assumed)
T2 sequence (looked up): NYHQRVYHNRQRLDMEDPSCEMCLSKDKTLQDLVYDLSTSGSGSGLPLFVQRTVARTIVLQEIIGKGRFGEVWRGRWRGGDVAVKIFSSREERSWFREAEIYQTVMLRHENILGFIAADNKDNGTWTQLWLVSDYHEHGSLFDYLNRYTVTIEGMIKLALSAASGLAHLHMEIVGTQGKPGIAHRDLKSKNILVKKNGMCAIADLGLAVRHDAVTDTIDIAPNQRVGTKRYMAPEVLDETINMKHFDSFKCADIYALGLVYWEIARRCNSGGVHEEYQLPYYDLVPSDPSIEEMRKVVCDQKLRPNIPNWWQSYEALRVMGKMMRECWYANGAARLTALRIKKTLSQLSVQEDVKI

T3: PrKX(h) (human, UniProt P51817 1-358)
T3 sequence (looked up): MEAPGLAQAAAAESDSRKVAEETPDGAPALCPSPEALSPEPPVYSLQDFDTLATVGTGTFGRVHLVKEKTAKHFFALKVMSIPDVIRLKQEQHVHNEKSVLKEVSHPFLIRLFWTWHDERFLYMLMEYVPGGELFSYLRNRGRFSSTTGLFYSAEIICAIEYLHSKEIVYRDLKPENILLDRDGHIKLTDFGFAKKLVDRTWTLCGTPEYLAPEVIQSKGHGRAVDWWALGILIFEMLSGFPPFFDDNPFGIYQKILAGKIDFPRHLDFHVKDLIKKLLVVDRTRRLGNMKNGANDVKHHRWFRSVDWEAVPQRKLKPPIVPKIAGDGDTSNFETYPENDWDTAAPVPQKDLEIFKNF

T4: TAO2(h) (human, UniProt Q9UL54 1-314, limits assumed)
T4 sequence (looked up): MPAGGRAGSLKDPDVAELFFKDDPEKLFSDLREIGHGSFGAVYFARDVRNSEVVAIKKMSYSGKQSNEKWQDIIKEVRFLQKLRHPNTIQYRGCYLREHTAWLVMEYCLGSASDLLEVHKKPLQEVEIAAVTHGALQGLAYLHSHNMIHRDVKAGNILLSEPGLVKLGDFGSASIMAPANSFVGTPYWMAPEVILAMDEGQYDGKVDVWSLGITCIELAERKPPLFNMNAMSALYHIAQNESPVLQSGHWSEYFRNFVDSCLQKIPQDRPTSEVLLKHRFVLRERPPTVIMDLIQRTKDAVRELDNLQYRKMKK

T5: ULK2(h) (human, UniProt Q8IYT8 1-478, limits assumed)
T5 sequence (looked up): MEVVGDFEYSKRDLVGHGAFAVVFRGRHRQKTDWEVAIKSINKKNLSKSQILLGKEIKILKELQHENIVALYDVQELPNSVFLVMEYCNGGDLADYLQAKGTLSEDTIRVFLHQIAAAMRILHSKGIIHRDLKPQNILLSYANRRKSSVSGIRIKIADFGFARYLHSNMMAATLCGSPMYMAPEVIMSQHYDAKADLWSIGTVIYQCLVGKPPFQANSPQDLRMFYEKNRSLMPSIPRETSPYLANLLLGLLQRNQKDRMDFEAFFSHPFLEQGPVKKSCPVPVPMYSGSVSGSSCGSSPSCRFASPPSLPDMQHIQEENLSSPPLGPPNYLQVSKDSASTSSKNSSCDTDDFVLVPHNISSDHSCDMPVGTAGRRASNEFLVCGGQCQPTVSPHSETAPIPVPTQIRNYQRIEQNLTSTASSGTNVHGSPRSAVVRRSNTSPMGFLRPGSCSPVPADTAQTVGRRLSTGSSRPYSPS

T6: DDR2(h) (human, UniProt Q16832 422-855, limits assumed)
T6 sequence (looked up): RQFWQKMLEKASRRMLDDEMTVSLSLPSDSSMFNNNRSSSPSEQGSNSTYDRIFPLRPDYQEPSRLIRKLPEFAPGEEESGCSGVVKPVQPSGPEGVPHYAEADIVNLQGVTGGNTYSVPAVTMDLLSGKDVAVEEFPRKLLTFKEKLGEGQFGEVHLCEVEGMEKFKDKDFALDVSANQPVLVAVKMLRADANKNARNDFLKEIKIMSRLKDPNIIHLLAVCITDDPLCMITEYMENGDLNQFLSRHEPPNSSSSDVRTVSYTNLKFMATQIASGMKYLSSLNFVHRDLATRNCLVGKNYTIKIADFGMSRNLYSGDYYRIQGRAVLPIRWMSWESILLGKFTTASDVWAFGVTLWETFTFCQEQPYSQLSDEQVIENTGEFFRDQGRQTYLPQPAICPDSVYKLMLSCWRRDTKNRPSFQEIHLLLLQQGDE


What was measured:
Test in all cases: cell-based or functional assay
[1] = molecular target: IRAK1(h) (human, UniProt P51617 194-712, limits assumed)
[2] = molecular target: T1, Itk(h)
[3] = molecular target: T2, ALK4(h)
[4] = molecular target: PKCγ(h) (human, UniProt P05129 1-697)
[5] = molecular target: T3, PrKX(h)
[6] = molecular target: Ros(h) (human, UniProt P08922 1883-2347, limits assumed)
[7] = molecular target: T4, TAO2(h)
[8] = molecular target: T5, ULK2(h)
[9] = molecular target: T6, DDR2(h)
[10] = molecular target: FGFR1(V561M)(h) (human, UniProt P11362 456-765, limits assumed)
Chain of FGFR1(V561M)(h) (P11362 456-765 V561M limits assumed): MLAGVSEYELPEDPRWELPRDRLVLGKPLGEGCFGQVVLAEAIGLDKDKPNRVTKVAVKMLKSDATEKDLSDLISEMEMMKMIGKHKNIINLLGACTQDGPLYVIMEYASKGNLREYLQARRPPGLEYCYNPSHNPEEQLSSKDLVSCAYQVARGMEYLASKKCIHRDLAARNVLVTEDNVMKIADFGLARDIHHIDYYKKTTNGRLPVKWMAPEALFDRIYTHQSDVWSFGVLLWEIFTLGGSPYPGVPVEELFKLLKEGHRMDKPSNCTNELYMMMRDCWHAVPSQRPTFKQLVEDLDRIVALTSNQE

Chain of Ros(h) (P08922 1883-2347 limits assumed): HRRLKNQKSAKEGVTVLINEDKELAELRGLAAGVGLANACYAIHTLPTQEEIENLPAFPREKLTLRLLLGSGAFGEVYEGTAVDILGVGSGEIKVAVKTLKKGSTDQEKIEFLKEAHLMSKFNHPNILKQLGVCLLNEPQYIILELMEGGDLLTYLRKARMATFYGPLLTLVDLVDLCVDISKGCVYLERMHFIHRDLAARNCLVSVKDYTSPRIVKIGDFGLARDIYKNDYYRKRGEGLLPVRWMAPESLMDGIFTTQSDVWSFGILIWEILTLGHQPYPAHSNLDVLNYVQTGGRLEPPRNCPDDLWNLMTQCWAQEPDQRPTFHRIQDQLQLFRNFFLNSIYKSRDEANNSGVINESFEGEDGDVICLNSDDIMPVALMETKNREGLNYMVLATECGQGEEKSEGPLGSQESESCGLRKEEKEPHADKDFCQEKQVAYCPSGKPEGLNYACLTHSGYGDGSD
Chain of IRAK1(h) (P51617 194-712 limits assumed): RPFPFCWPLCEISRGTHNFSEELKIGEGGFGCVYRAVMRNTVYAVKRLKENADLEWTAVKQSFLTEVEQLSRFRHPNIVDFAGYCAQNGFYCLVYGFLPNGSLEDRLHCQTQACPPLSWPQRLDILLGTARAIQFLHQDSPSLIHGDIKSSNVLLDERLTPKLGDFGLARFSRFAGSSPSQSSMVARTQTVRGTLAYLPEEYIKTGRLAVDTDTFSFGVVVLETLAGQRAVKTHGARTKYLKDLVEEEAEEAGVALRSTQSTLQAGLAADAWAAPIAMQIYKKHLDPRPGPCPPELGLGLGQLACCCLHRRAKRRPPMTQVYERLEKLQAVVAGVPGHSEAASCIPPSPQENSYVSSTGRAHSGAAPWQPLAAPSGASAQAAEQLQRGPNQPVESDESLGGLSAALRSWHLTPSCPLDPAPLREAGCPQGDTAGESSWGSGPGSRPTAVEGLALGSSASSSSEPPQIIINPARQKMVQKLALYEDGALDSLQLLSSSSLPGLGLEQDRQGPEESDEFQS

% activity [1] [%] | % activity [2] [%] | % activity [3] [%] | % activity [4] [%] | % activity [5] [%] | % activity [6] [%] | % activity [7] [%] | % activity [8] [%] | % activity [9] [%] | % activity [10] [%] | Binder
95 | 77 | 140 | 89 | 61 | 95 | 70 | 122 | 94 | 74 | FAKLAARLYRKALARQLGVAA [MMI-0300]
93 | 63 | 130 | 79 | 76 | 99 | 74 | 131 | 95 | 74 | KAFAKLAARLYRKALARQLGVAA [MMI-0400]
